The values that follow come from patent publication US20170082635A1 (University of California, published 2017).

B2: yeast 20 S proteasome subunit β3 (PUP3) (other, UniProt P25451 1-205, looked up)
chain: MSDPSSINGGIVVAMTGKDCVAIACDLRLGSQSLGVSNKFEKIFHYGHVFLGITGLATDVTTLNEMFRYKTNLYKLKEERAIEPETFTQLVSSSLYERRFGPYFVGPVVAGINSKSGKPFIAGFDLIGCIDEAKDFIVSGTASDQLFGMCESLYEPNLEPEDLFETISQALLNAADRDALSGWGAVVYIIKKDEVVKRYLKMRQD

Assay [1] concerns the target B2. Briefly: DSSO XL-MS of purified yeast 20S proteasome.
In assay [2] the target is T1, yeast 20 S proteasome subunit α3 (PRE9) (yeast, UniProt P23638 1-258).
T1 sequence (looked up): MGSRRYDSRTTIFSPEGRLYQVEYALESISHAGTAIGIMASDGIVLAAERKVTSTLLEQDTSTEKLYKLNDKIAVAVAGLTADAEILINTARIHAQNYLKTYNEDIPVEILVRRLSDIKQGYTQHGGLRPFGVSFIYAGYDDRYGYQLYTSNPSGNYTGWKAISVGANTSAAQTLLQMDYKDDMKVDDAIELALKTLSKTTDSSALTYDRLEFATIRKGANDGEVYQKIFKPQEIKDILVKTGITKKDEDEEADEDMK
As to the kind of experiment: DSSO XL-MS of purified yeast 20S proteasome.

The target of assay [3] is T2, human proteasome subunit Rpn5 (human, UniProt O00232 2-456).
T2 construct: whole, on cells; endogenous, cross-linked inside intact 293 cells, purified with the HB-tagged bait; also called O00232
As to the kind of experiment: in vivo azide-A-DSBSO XL-MS of HB-tag purified human proteasome.

The target of assay [4] is T3, HB-Rpt6 (human, UniProt P62195 2-406).
T3 construct: whole, on cells; stably expressed in 293 cells; used for all links whose Bait column says Rpt6; residue numbers count on P62195, not on the tagged construct; also called Rpt6 (bait); HB tagged proteasome subunit Rpt6; not shown: HB (His-bio) tag, written before Rpt6
Described as above.

Assay [5] has as its target T4, yeast 20 S proteasome subunit α6 (PRE5) (yeast, UniProt P40302 1-234).
T4 sequence (looked up): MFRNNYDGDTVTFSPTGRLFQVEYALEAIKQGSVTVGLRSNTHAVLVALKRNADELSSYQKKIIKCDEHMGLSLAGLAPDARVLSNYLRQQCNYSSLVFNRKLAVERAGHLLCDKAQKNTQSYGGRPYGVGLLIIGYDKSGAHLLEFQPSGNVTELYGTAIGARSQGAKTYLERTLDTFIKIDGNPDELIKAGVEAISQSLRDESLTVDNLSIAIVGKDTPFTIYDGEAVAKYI
As to the kind of experiment: DSSO XL-MS of purified yeast 20S proteasome.

B1: yeast 20 S proteasome subunit β4 (PRE1) (other, UniProt P22141 1-198, looked up)
chain: MDIILGIRVQDSVILASSKAVTRGISVLKDSDDKTRQLSPHTLMSFAGEAGDTVQFAEYIQANIQLYSIREDYELSPQAVSSFVRQELAKSIRSRRPYQVNVLIGGYDKKKNKPELYQIDYLGTKVELPYGAHGYSGFYTFSLLDHHYRPDMTTEEGLDLLKLCVQELEKRMPMDFKGVIVKIVDKDGIRQVDDFQAQ
As to B1, in assay [1], the binding result was “binds”.
On to B2, for which the binding result in assay [2] is given as “binds”.

B3: human proteasome subunit Rpn9 (other, UniProt Q9UNM6 1-376, looked up)
chain: MKDVPGFLQQSQNSGPGQPAVWHRLEELYTKKLWHQLTLQVLDFVQDPCFAQGDGLIKLYENFISEFEHRVNPLSLVEIILHVVRQMTDPNVALTFLEKTREKVKSSDEAVILCKTAIGALKLNIGDLQVTKETIEDVEEMLNNLPGVTSVHSRFYDLSSKYYQTIGNHASYYKDALRFLGCVDIKDLPVSEQQERAFTLGLAGLLGEGVFNFGELLMHPVLESLRNTDRQWLIDTLYAFNSGNVERFQTLKTAWGQQPDLAANEAQLLRKIQLLCLMEMTFTRPANHRQLTFEEIAKSAKITVNEVELLVMKALSVGLVKGSIDEVDKRVHMTWVQPRVLDLQQIKGMKDRLEFWCTDVKSMEMLVEHQAHDILT
notes: whole, on cells; endogenous, cross-linked inside intact 293 cells, purified with the HB-tagged bait; also called Q9UNM6
As for B3, the binding result in assay [3] was “binds”.

B4: human proteasome subunit α3 (other, UniProt P25789 1-261, looked up)
chain: MSRRYDSRTTIFSPEGRLYQVEYAMEAIGHAGTCLGILANDGVLLAAERRNIHKLLDEVFFSEKIYKLNEDMACSVAGITSDANVLTNELRLIAQRYLLQYQEPIPCEQLVTALCDIKQAYTQFGGKRPFGVSLLYIGWDKHYGFQLYQSDPSGNYGGWKATCIGNNSAAAVSMLKQDYKEGEMTLKSALALAIKVLNKTMDVSKLSAEKVEIATLTRENGKTVIRVLKQKEVEQLIKKHEEEEAKAEREKKEKEQKEKDK
notes: whole, on cells; endogenous, cross-linked inside intact 293 cells, then purified with the HB-tagged bait under denaturing conditions; also called alpha3; alpha-3
For the molecule B4, the binding result in assay [4] is on record as “binds”.

B5: yeast 20 S proteasome subunit β6 (PRE7) (other, UniProt P23724 20-241, looked up)
chain: QFNPYGDNGGTILGIAGEDFAVLAGDTRNITDYSINSRYEPKVFDCGDNIVMSANGFAADGDALVKRFKNSVKWYHFDHNDKKLSINSAARNIQHLLYGKRFFPYYVHTIIAGLDEDGKGAVYSFDPVGSYEREQCRAGGAAASLIMPFLDNQVNFKNQYEPGTNGKVKKPLKYLSVEEVIKLVRDSFTSATERHIQVGDGLEILIVTKDGVRKEFYELKRD
notes: mature
For B5, the binding result in assay [5] was “binds”.
